Literature values, collected in article PMC5209733, “U24 from Roseolovirus interacts strongly with Nedd4 WW Domains” (Scientific Reports, 2017).

B1: MBP: myelin basic protein (protein, UniProt P02686 1-304, looked up)
Myelin basic protein: MGNHAGKRELNAEKASTNSETNRGESEKKRNLGELSRTTSEDNEVFGEADANQNNGTSSQDTAVTDSKRTADPKNAWQDAHPADPGSRPHLIRLFSRDAPGREDNTFKDRPSESDELQTIQEDSAATSESLDVMASQKRPSQRHGSKYLATASTMDHARHGFLPRHRDTGILDSIGRFFGGDRGAPKRGSGKDSHHPARTAHYGSLPQKSHGRTQDENPVVHFFKNIVTPRTPPPSQGKGRGLSLSRFSWGAEGQRPGFGYGGRASDYKSAHKGFKGVDAQGTLSKIFKLGGRDSRSGSPMARR
B2: U24: putative tail-anchored membrane protein that is unique to roseoloviruses (protein)
chain: MDPPRTPPPSYSEVLMMDVMCGQVSPHVINDTSFVECIPPPQSRPAWNLWNNRRKTFSFLVLTGLAIAMILFIVFVLYVFHVNRQRR

Key:
Fyn SH3 = conditions: association with Fyn SH3
Description: One possible way in which U24 may be implicated in MS is through the mimicry of myelin basic protein (MBP) because the two proteins share a seven amino acid stretch that contains a PxxP motif (Fig. 1a). This segment is essential for MBP to participate in Fyn-mediated signalling pathways by a direct but non-canonical association with the Fyn-SH3 domain[11]. Disruption of these signalling pathways has a large impact on oligodendrocyte differentiation and maturation, processes that are perturbed in MS patients. Within this PxxP motif and just before it are two threonine residues (T95 and T98), wh ...

[1] = test system: human Nedd4 family E3 ubiquitin ligases: Nedd4-1, Nedd4-2, AIP4, Smurf1, Smurf2, WWP1, and WWP2; conditions: pull-down assays
Description: However, precise binding affinities are hard to extract from such results. […] We have focussed our studies on human Nedd4 WW domains (hNedd4 and hNedd4L, Fig. 1b) given their relevance in the CNS, noted above. As controls, we have u ...

[2] = test system: TCR/CD3ε receptors in T-cells; conditions: PY motif responsible for down-regulation
Description: (§1) Within the proline rich region of U24 is a PY motif that is conserved in both HHV-6A and HHV-7 (Fig. 1a). […] However, the exact mechanism by which this occurs is unknown.

[3] = test system: transferrin receptor (TfR)
Description: as §1

Nedd4-WW1 domain = conditions: found previously
Experimental: In order to compare with previously reported results, experiments were carried out on four relevant WW domains: the second and the third WW domain of rat Nedd4 (rNedd4-WW2 and rNedd4-WW3/4, where WW3/4 is a homologue of the fourth WW domain in human), and the pair of third WW domains from human Nedd4 (hNedd4-WW3* and hNedd4L-WW3*). The WW3 domains are indicated with a star because this type of WW domain is missing in rat and mouse Nedd4[36][37]. Nedd4-WW1 domain was not used as it was found previously not to bind U24. The WW domains mentioned above were fused to the C-terminus of GST prote ...

Molecule	Kd (Fyn SH3) [µM]	binding to Nedd4 family E3 ubiquitin ligases [1]	recycling of TCR/CD3ε receptors to the cell surface [2]	modulation of transferrin receptor [3]	binding to Nedd4-WW1 (Nedd4-WW1 domain)
B1	4 to 8	–	–	–	–
B2	–	can bind to most of the seven human Nedd4 family E3 ubiquitin ligases	blocked from recycling back to the cell surface	down-modulate the transferrin receptor	not to bind
